In doi:10.1101/2024.05.12.593783:

Experiments:
[1] = target: FITC-CLMBWT peptide (residues 21-50), not phosphorylated (UniProt Q96GX8); assay: fluorescence polarisation
[2] = target: FITC-pCLMBWT peptide (residues 21-50, pThr44) (UniProt Q96GX8); assay: fluorescence polarisation

Kd [1]: 0.291 µM | Kd [2]: 0.0141 µM
Substance: purified, catalytically inactive CNA/B containing CNA_(Trunc+H151Q) (from UniProt Q08209 1-391; P63098 1-170) (complex)
